Reference: patent US20160199445A1, “USE OF ARPIN A NEW INHIBITOR OF THE ARP2/3 COMPLEX FOR THE DIAGNOSIS AND TREATMENT OF DISEASES” (CENTRE NATIONAL DE LA RECHERCHE SCIENTIFIQUE, priority 2013, published 2016)
No end group written: not given here. *: point of attachment. 5‑TAMRA = 5-carboxytetramethylrhodamine label, CN(C)c1ccc2c(-c3ccc(C(=O)*)cc3C(=O)[O-])c3ccc(=[N+](C)C)cc-3oc2c1

Target: Purified Arp2/3 complex
Assay: fluorescence anisotropy, labelled ArpinA peptide titrated with purified Arp2/3 complex

{5‑TAMRA}-EIREQGDGAEDEEWDD [ArpinA peptide labelled with 5-TAMRA at the N-terminus]
Kd: 384 nM
